Measured values as given in publication PMC12204462.
pKd: −log10 of the molar value.

Test system: AsCas12a
Assay: BLI
Conditions: not stated in material

Question: cDNA with 5' handle was tested. Which pKd did it give?
Answer: The pKd was greater than 7.43.

Question: How did the pKd turn out when crRNA (BLI) was run?
Answer: Its pKd is 8.43.

Question: ΨDNA (cDNA with 3' handle; BLI) was tested. Which pKd did it give?
Answer: Its pKd is 7.61.
